Source: patent publication US20250186580A1 (TRIDEM BIOSCIENCE, published 2025)

Molecular target: ActHIB, Haemophilus influenzae type b capsular polysaccharide (PRP) tetanus toxoid conjugate, withou (UniProt P04958 2-1315)
Assay: competitive ELISA, soluble murine Fc-dectin-1a on coated glucan

B1: soluble murine Fc-dectin-1a receptor (InvivoGen) (Fc fusion)
chain: EYGHNSGRNPEEKDNFLSRNKENHKPTESSLDEKVAPSKASQTTGGFSQPCLPNWIMHGKSCYLFSFSGNSWYGSKRHCSQLGAHLLKIDNSKEFEFIESQTSSHRINAFWIGLSRNQSEGPWFWEDGSAFFPNSFQVRNTAPQESLLHNCVWIHGSEVYNQICNTSSYSICEKEL
Question: Does B1 bind?
Answer: Result: no binding
